Measured values as given in US20220332804A1 (CSL INNOVATION, published 2022).
Residue numbers refer to the chain shown, from its start.

T1: human complement C2 (human, UniProt P06681 21-752)
T1 sequence: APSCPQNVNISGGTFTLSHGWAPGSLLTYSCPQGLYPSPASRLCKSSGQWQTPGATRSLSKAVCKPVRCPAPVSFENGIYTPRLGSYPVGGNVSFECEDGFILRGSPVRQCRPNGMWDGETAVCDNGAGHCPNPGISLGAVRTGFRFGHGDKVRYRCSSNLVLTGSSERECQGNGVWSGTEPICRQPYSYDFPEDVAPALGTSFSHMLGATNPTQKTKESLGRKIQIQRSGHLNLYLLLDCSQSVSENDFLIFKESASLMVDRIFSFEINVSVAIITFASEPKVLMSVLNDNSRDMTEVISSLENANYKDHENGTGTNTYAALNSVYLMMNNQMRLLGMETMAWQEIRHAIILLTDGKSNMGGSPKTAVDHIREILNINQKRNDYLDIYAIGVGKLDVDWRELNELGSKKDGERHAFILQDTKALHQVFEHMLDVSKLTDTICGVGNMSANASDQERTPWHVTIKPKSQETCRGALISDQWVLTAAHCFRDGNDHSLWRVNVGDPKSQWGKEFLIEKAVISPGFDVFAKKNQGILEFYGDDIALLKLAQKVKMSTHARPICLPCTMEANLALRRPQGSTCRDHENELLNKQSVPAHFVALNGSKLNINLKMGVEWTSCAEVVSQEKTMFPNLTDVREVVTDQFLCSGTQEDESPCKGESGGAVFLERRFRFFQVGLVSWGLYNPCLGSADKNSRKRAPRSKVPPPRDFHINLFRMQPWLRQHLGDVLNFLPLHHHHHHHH

T2: cynomolgus monkey C2 (cynomolgus monkey, UniProt G8F3W0 21-752)
T2 sequence: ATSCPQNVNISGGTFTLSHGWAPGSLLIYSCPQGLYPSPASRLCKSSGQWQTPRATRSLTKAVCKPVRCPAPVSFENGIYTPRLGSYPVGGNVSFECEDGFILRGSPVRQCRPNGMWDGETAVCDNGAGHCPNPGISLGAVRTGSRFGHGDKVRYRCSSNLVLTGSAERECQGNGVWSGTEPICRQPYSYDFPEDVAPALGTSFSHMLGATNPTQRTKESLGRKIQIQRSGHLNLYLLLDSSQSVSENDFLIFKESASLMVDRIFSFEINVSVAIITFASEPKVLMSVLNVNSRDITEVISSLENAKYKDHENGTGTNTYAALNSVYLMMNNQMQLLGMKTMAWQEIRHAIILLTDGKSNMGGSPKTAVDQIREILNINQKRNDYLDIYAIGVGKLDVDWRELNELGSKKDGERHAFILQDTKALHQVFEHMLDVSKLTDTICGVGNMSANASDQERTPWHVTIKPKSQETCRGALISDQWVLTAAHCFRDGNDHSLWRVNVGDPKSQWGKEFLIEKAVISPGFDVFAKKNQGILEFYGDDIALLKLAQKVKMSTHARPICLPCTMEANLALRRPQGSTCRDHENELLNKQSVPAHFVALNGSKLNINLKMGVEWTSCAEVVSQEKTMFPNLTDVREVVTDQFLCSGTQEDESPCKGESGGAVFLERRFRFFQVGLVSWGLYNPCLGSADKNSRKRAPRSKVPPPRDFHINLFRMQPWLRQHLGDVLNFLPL

T3: mouse C2 (mouse, UniProt P21180 19-760, limits assumed)
T3 sequence (looked up): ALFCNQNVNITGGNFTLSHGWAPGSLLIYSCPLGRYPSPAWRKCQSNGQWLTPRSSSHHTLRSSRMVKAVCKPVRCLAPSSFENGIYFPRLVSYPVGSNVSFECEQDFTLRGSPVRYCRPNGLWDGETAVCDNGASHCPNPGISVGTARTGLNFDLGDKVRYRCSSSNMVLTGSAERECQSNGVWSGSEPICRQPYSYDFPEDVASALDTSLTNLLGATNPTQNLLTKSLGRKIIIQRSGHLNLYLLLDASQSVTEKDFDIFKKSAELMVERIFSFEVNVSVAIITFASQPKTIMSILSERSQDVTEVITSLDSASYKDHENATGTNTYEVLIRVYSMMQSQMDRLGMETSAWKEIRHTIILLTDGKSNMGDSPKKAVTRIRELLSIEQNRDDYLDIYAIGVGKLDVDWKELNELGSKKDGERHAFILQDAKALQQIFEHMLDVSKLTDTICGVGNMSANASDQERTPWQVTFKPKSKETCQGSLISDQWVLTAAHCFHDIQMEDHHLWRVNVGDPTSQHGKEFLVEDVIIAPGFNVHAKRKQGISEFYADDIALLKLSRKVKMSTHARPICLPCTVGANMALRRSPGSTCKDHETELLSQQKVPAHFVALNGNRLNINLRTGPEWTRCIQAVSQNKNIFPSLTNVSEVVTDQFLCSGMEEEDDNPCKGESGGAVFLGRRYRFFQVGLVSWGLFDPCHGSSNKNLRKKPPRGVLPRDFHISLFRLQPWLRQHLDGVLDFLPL

B1: RF16-214G (antibody, V domains shown)
VH: EVQLLESGGGLVQPGGSLRLSCAASGFTFSWYQMMWVRQAPGKGLEWVSRIYPSGGGTAYADSVKGRFTISRDNSKNTLYLQMNSLRAEDTAVYYCARDAGYGDNWGQGTLVTVSS
VL: SYELTQPPSVSVSPGQTASITCSGDKLGEKYASWYQQKPGQSPVLVIYQDRKRPSGIPERFSGSNSGNTATLTISGTQAMDEADYYCQAWDTRAVVFGGGTKLTVLG
B2: RF16-203G (antibody, V domains shown)
VH: EVQLLESGGGLVQPGGSLRLSCAASGFTFSRYYMMWVRQAPGKGLEWVSSIGSSGGTTNYADSVKGRFTISRDNSKNTLYLQMNSLRAEDTAVYYCAKGGMVLGVVNIWGQGTLVTVSS
VL: SYELTQPPSVSVSPGQTASITCSGDKLGEKYVSWYQQKPGQSPVLVIYQDIKRPSGIPERFSGSNSGNTATLTISGTQAMDEADYYCQTWGTGGIQVFGGGTKLTVLG
B3: RF16-242 (antibody, V domains shown)
VH: EVQLLQSGAEVKKPGESLKISCKGSGYSFTSYWIGWVRQMPGKGLEWMGIIYPGDSDTRYSPSFQGQVTISADKSISTAYLQWSSLKASDTAMYYCARRGHYGDYFDYWGQGTLVTVSS
VL: SYELTQPPSVSVSPGQTARITCSGDALPKKYAYWYHQKSGQAPVLVIYEDRRRPSEIPERFSGSSSGTMATLTITGAQVEDEGVYFCYSRDRAGNQRVFGGGTQLTVLG
B4: RF16-242G (antibody, V domains shown)
VH: B3 VH with L5V
VL: B3 VL with H36Q, E56G, T75S, G83A, V84D, F86Y
notes: Germlined version of RF16-242
B5: RF16-226G (antibody)
heavy: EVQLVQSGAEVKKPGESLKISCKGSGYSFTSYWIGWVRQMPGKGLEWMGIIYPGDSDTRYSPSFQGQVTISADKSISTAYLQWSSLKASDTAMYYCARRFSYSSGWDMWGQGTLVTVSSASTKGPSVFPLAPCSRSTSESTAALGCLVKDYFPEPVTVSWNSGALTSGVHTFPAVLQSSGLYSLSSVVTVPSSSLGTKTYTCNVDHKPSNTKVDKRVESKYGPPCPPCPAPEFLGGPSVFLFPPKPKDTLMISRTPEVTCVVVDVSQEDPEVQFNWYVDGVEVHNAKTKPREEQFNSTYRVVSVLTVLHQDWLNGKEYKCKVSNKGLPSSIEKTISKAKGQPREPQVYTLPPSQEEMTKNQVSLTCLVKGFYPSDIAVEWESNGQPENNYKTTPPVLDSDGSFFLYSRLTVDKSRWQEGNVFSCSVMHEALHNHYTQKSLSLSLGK
light: SYELTQPPSVSVSPGQTARITCSGDALTSKYVAWYQQKSGQAPVLVIYEDTRRPSGIPERFSGSSSGTMATLTISGAQVEDEADYYCYSTDASGHQRVFGGGTKLTVLGQPKAAPSVTLFPPSSEELQANKATLVCLISDFYPGAVTVAWKADSSPVKAGVETTTPSKQSNNKYAASSYLSLTPEQWKSHRSYSCQVTHEGSTVEKTVAPTECS
B6: RF16-191G (antibody, V domains shown)
VH: EVQLLESGGGLVQPGGSLRLSCAASGFTFSKYWMGWVRQAPGKGLEWVSSIYSSGGWTYYADSVKGRFTISRDNSKNTLYLQMNSLRAEDTAVYYCARRPRSFSGSYYRAFDIWGQGTMVTVSS
VL: DIQMTQSPSSLSASVGDRVTITCRASQSITDYLNWYQQKPGKAPKLLIYAASSLQSGVPSRFSGSGSGTDFTLTISSLQPEDFATYYCQQSYSSSITFGQGTRLDLKR

The binders below were run against T1, human complement C2 (assay: cell-based or functional assay).

IC50, inhibition of human classical complement pathway (Wieslab assay) [nM]	IC50, inhibition of human lectin complement pathway (Wieslab assay) [nM]	Binder
20.3	6.4	B1
2030	33.2	B2
9.19	2.91	B3
26.3	3.19	B4
5.58	3.25	B5
1.64	1.62	B6

Each binder was assayed against T2, cynomolgus monkey C2 (assay: cell-based or functional assay).

IC50, inhibition of cynomolgus classical complement pathway (Wieslab assay) [nM]	IC50, inhibition of cynomolgus lectin complement pathway (Wieslab assay) [nM]	Binder
135	223	B1
14100	5780	B2
8.97	91.1	B3
19.3	275	B4
8.24	66.5	B5
8.73	42.9	B6

Molecular target: T1, human complement C2
Assay: cell-based or functional assay
Remark: another data set of the same source

Binder	IC50, inhibition of human classical pathway (hemolysis assay) [nM]
B1	337
B3	55.4
B4	80.3
B5	230
B6	94

Molecular target: T2, cynomolgus monkey C2
Assay: cell-based or functional assay
Remark: another data set of the same source

Binder	IC50, inhibition of cyno classical pathway (hemolysis assay) [nM]	IC50, inhibition of cyno classical pathway (hemolysis assay), mean of three experiments [nM]
B1	396	
B3	642	
B4	302	
B5		176
B6	213	

What follows are binders tested against T2, cynomolgus monkey C2 (assay: SPR, mAb captured, cyno C2 analyte, pH 6.0).
Method: (§1) Surface plasmon resonance (SPR, Biacore) was used for all binding affinity analyses. In brief, goat anti-human IgG was directly immobilised onto the carboxymethyl dextran surface of CM5 sensorchips to approximately 12,000 RU using standard NHS/EDC chemistry at pH 5. The immobilised antibody surface was pre-conditioned with ten injections of polyclonal human IgG (Privigen 60 s) prepared at 1 μg/mL. Ligands (anti-C2 mAbs) were captured at the beginning of each cycle as described below. An adjacent spot or flow cell in which only Polyclonal IgG was capture was used as a reference surface. The goat anti-human IgG Fc antibody surface was regenerate in 100 mM H3PO4, injected for 45 seconds at the end of each cycle. Experiments were performed at 37° C. and the flow rate of each experiment was kept constant at 30 μL/min.
In addition to human C2, the pH dependent anti-C2 antibodies were also tested for their ability to bind to C2 from other mammalian species using the SPR methods described above in order to identify suitable surrogate species for in vivo testing. The antibodies were tested for binding at neutral pH against C2 from cynomolgus monkeys, mice, dogs, rabbits, rats, pigs, and sheep.

Kd [nM]	Binder
111	B1
134	B3
132	B4
114	B5
87.3	B6

What follows are binders tested against T2, cynomolgus monkey C2 (assay: SPR, mAb captured, cyno C2 analyte, pH 7.3).

Kd [nM]	Binder
41.5	B1
485	B2
5.2	B3
4.4	B4
4.7	B5
35.7	B6

The binders below were run against T1, human complement C2 (assay: SPR, mAb captured, C2 analyte, HBS-EP, pH 6.0).
Method: as §1
The pH dependent anti-C2 antibodies and their germlined versions were tested for their affinity to C2 at pH 7.3 (neutral pH) and pH 6.0 (early endosome pH) using the SPR methods described above in HBS-EP buffer.

Kd [nM]	Binder
53.9	B1
16	B3
14	B4
128	B5
13	B6

What follows are binders tested against T1, human complement C2 (assay: SPR, mAb captured, C2 analyte, HBS-EP, pH 7.3).

Kd [nM]	Binder
25.1	B1
506	B2
7	B3
6.7	B4
10	B5
18.9	B6

What follows are binders tested against T1, human complement C2 (assay: SPR, mAb captured, C2 analyte, MHAs buffer, pH 7.3).
Method: as §1
(§2) This buffer contains ammonium sulfate instead of sodium chloride.

Kd [nM]	Binder
176	B1
460	B3
558	B4
45.6	B5

The binders below were run against T1, human complement C2 (assay: SPR, mAb captured, C2 analyte, MHAs buffer, pH 5.8, steady state).
Method: as §1, §2

Kd [nM]	Binder
3340	B1
32000	B3
47000	B4
4060	B5

What follows are binders tested against T1, human complement C2 (assay: SPR, mAb captured, C2 analyte, MHAs buffer, pH 6.0, steady state).
Method: as §1, §2

Kd [nM]	Binder
1480	B1
11600	B3
12000	B4
1900	B5

Each binder was assayed against T3, mouse C2 (assay: SPR, mouse C2, pH 7.3; VWB = very weak binding, KD not determined).

binding result	Binder
binds	B1
binds	B2
binds	B4
binds	B5
binds	B6
